In patent publication US7258861B2, “TNF-derived peptides for use in treating oedema” (Innogenetics N.V., priority 2001, dated 2007):
Positions of bridges follow the written chain, without caps; N, C: chain ends. No end group written: not given here. *: point of attachment. Biotin = O=C1N[C@H]2[C@H](CS[C@H]2CCCCC(=O)*)N1

B1: mutTNF: E.coli-derived recombinant (T104A-E106A-E109A) triple TNF mutant (protein, UniProt P06804 1-235, looked up, variant T104A E106A E109A)
chain: MSTESMIRDVELAEEALPQKMGGFQNSRRCLCLSLFSFLLVAGATTLFCLLNFGVIGPQRDEKFPNGLPLISSMAQTLTLRSSSQNSSDKPVAHVVANHQVEEQLEWLSQRANALLANGMDLKDNQLVVPADGLYLVYSQVLFKGQGCPDYVLLTHTVSRFAISYQEKVNLLSAVKSPCPKDAPAGAALKPWYEPIYLGGVFQLEKGDQLSAEVNLPKYLDFAESGQVYFGVIAL

Assays:
[1] = tested on: resident peritoneal macrophages from mice deficient in both TNF receptor-1 and -2; assay: Whole-cell patch clamp in resident peritoneal macrophages of TNFR1/2-deficient mice; type: cell-based, mouse; conditions: cells lacking TNF receptors
Excerpt: (§1) Animals, cells and reagents. Male CBA/J or C57BL/6 mice, as well as male TNFR ½^0/0 C57BL/6 mice deficient in TNF receptors (Bruce et al., 1996) provided by H. Bluethmann, F. Hoffmann-La Roche, Basel, Switzerland, were used at the age of 8–10 weeks. Their care was in accordance with institutional guidelines. Lung microvascular endothelial cells were isolated from CBA/J mice and characterized as described (Jackson et al., 1990) using magnetic beads (Dynabeads M-450, Dynal, Oslo, Norway), covalently bound to a purified rat-anti-mouse PECAM-1 monoclonal antibody (donated by B. Imhof, University of Geneva). Microvascular lung endothelial cells were resuspended in DMEM containing 2 mM L-glutamine, 100 U/ml penicillin, […], 20% FCS, 40 U/ml heparin and […] endothelial cell growth supplement (Brunschwig Chemie, Basel, Switzerland). For patch clamp experiments, cells were plated onto 35×10 mm easy grip Petri dishes (Beckton Dickinson, Plymouth, UK), pre-coated with 0.2% gelatin (Sigma, Buchs, Switzerland). Resident peritoneal macrophages, isolated in ice cold RPMI containing antibiotics and 10 U/ml Heparin, were left to adhere onto 35×10 mm easy grip Petri dishes for 4 h, after which the non-adherent cells were removed. […]
(§2) Electrophysiology. […] Currents were recorded with an Axopatch-200A amplifier (Axon Instrument Inc, Foster City, Calif., USA), low pass-filtered at 1 kHz. […]

[2] = tested on: lung microvascular endothelial cells; assay: Whole-cell patch clamp, membrane conductance in lung microvascular endothelial cells; type: cell-based, mouse
Excerpt: Animals, cells and reagents. Male CBA/J or C57BL/6 mice, as well as male TNFR ½^0/0 C57BL/6 mice deficient in TNF receptors (Bruce et al., 1996) provided by H. Bluethmann, F. Hoffmann-La Roche, Basel, Switzerland, were used at the age of 8–10 weeks. Their care was in accordance with institutional guidelines. Lung microvascular endothelial cells were isolated from CBA/J mice and characterized as described (Jackson et al., 1990) using magnetic beads (Dynabeads M-450, Dynal, Oslo, Norway), covalently bound to a purified rat-anti-mouse PECAM-1 monoclonal antibody (donated by B. Imhof, University of Geneva). Microvascular lung endothelial cells were resuspended in DMEM containing 2 mM L-glutamine, 100 U/ml penicillin, […], 20% FCS, 40 U/ml heparin and […] endothelial cell growth supplement (Brunschwig Chemie, Basel, Switzerland). For patch clamp experiments, cells were plated onto 35×10 mm easy grip Petri dishes (Beckton Dickinson, Plymouth, UK), pre-coated with 0.2% gelatin (Sigma, Buchs, Switzerland). Resident peritoneal macrophages, isolated in ice cold RPMI containing antibiotics and 10 U/ml Heparin, were left to adhere onto 35×10 mm easy grip Petri dishes for 4 h, after which the non-adherent cells were removed. Cells were grown in RPMI 1640 containing 2 mM L-glutamine, 100 U/ml penicillin, 10 μpg/ml streptomycin and 10% fetal bovine serum (all from Gibco). For patch clamp, the macrophages ware used 24 h after isolation.
Electrophysiology. Cells were pretreated for 30 min with TNF, mutTNF and tip peptides at 37° C. in a buffer consisting of 145 mM NaCl, 3 mM KCl, 2mM CaCl2, 2mM MgCl2, 10 mM D-glucose, and 10mM Hepes, and pH-adjusted with NaOH to required value. Cells were then washed with the same buffer pH-adjusted at 7.3, and experiments were performed using the tight-seal, whole-cell recording technique. Currents were recorded with an Axopatch-200A amplifier (Axon Instrument Inc, Foster City, Calif., USA), low pass-filtered at 1 kHz. Digitalization and off-line analysis was performed using the WCP program (J. Dempster, Strathclyde Electrophysiology Software, Glasgow, UK). Patch pipettes were pulled from borosilicate glass and fire polished to have an open resistance of 3–5 MW with an internal solution containing […], 2 mM MgCl2, 10mM EGTA, 20 mM TEA-Cl, 10 mM D-glucose 10 mM Hepes, pH-adjusted to 7.3 with CsOH. Series resistances were kept under 10 MW. Capacitance and series resistance compensation were applied and set to 70%. All experiments were done at room temperature. Results are given as mean ±SEM, unless otherwise indicated. Analysis of variance was performed on currents and membrane conductance values, with post-hoc Dunn-Bonferroni test for significance of differences observed between two groups. A P value of 0.05 was considered significant.

isolated rat lungs = assay: Isolated lung perfusion experiments (blood perfused, flooded with NaCl); conditions: after injection of 2 ml NaCl solution; 1 mg/lung
Procedure: Lungs of female Whistar rats weighing about 300 g were isolated as described in DeCampos et al. (1993). The lungs were injected intratracheally with either 500 μl of sterile […], wild type murine TNF (1 μg/lung) or mTNF tip peptide (Ltip (SEQ ID NO:6), see above; 1 mg/lung). Subsequently, the lungs were perfused with blood isolated from the same rat. Thirty minutes later, the lungs were injected intratracheally with 2 ml of sterile […] solution which leads to a weight increase of about 2 g (FIG. 5). The weight evolution was then followed continuously for 150 min (FIG. 5).

[3] = Chloride efflux from SPQ-containing liposomes
Procedure: Preparation of liposomes. Large unilamellar liposomes were prepared by reverse phase evaporation as previously described (Vecsey-Semjen et al., 1996). Liposomes were prepared of either 100% egg phosphatidylglycerol (EPG) or a mixture of EPC and EPG (1:1 W/W) in a buffer containing 100 mM KCl, 20 mM N-[2-Hydroxyethyl]piperazine-N′-[2-ethane-sulfonic acid] (HEPES), pH 7.4 and 1.5 mg/ml of 6-methoxy-N-(3-sulfopropyl)quinolinium (SPQ).
Choride efflux measurements. All fluorescence experiments were carried out using a PTI spectrofluorometer equipped with a thermostated cell holder (37° C.). The dye was excited at 350 nm and emission was recorded at 422 nm, both excitation and emission band widths were set to 5 nm. Liposomes were diluted to a final concentration of 50 μg/ml in a solution containing 100 mM KNO3 and 20 mM MES pH 6.1 or 20 mM HEPES, pH 7.4. Wild type and mutant TNF were added to a final concentration of 3 μg/ml.

[4] = tested on: resident peritoneal macrophages; assay: Whole-cell patch clamp in resident peritoneal macrophages; type: cell-based, mouse; conditions: 30 min preincubation, acidic pH
Excerpt: as §1, §2

trypanosome = conditions: compared to wild type TNF; cited from earlier work
[5] = compared to wild-type mTNF in vivo; cited from earlier work
[6] = tested on: murine model of peritonitis; conditions: cited from earlier work
[7] = Quenching of tryptophan fluorescence by brominated lipids; conditions: acidic pH
Excerpt: In order to investigate whether chloride efflux was due to membrane binding or membrane insertion of TNF, we have analyzed whether brominated lipids were able to quench the intrinsic fluorescence of TNF and mutTNF upon membrane interaction. Brominated lipids have been useful in determining the topology of membrane proteins (Bolon et al., 1990) (Markello et al., 1985) as well as studying the membrane interaction of pore-forming toxins (Gonzalez-Manas et al., 1992) (Van der Goot et al., 1991) (Vecsey-Semjen et al., 1997). TNF contains two tryptophan residues, one at the top of the receptor binding domain and one at the top of the so called tip domain. If the tip of the TNF trimer were to insert into the lipid bilayer, the fluorescence of Trp-113 should be quenched upon insertion into liposomes composed of dioleoylphosphatidylglycerol that had bromines attached at positions 9 and 10 of the acyl chains. We have indeed previously observed that tryptophans located at the boundary between the lipid head groups and the acyl chains were succeptible to bromide quenching.

[8] = Tryptophan fluorescence (acidic unfolding); type: physicochemical
Procedure: Tryptophan fluorescence. Fluorescence measurements were made with a PTI spectrofluorimeter. The excitation wavelength was 295 nm and slit widths were 5 nm and 2.5 nm for excitation and emission respectively. For each recorded spectrum, the Raman scatter contribution was removed by subtraction of a buffer blank. All buffers contained 150 mM NaCl, and 20 mM of N-[2-morpholino] ethane-sulfonic acid (MES) buffer at the desired pH. The samples were allowed to incubate for 1 h 30 at the desired pH before measuring the emission spectrum. The wild type and mutant TNF concentrations were 6 μg/ml.

[9] = 30 min preincubation at acidic pH (pH 6), TNF, mutTNF 100 ng/ml, peptides 100 μg/ml

Molecule	whole cell current [1]	induced increase in conductance in presence of amiloride ([2]; 100 μM amiloride added during pretreatment at pH 6.0)	whole cell current / membrane conductance [2, 9]	whole cell current / membrane conductance ([2]; preincubation at pH 7.3 (neutral pH))	start of weight loss (isolated rat lungs)	change in SPQ fluorescence / interaction with membranes ([3]; peptide concentrations up to 300 μg/ml, neutral, acidic or 1:1 lipids)	whole cell current [4]	trypanolytic and lectin-like affinity to oligosaccharides (trypanosome)	systemic toxicity [5]	peritonitis-protective effect [6]	fluorescence quenching by brominated lipids [7]	chloride efflux (SPQ fluorescence) ([3]; 100% EPG liposomes, pH 6.1, 3 μg/ml)	interaction with membranes ([3]; neutral pH)	acidic unfolding ([8]; acidification of the medium)	maximum emission of tryptophan fluorescence ([8]; pH 4.6)	maximum emission of tryptophan fluorescence ([8]; pH 6)
GG-CGPKDTPEGAELKPWYC (Biotin-GGCGPKDTPEGAELKPWYC; disulfide 3-19; listed as Mus musculus) [LTip]	also active	blocked	increased outward, and inward currents	persisted at neutral pH, although less pronounced	started immediately	unable to interact with membranes	increased outward	–	–	–	–	–	–	–	–	–
B1	–	–	completely lacked the conductance activating effect	–	–	–	–	lacks the trypanolytic and lectin-like affinity to oligosaccharides	significantly reduced systemic toxicity	retains its peritonitis-protective effect	unable to see any fluorescence quenching	even more pronounced than that of wild type TNF	did not interact with membranes	able to undergo acidic unfolding	339 nm	318 nm
